According to article PMC7217667:

T1: OsMYB80 (rice, UniProt Q7XQN1 1-372)
T1 sequence: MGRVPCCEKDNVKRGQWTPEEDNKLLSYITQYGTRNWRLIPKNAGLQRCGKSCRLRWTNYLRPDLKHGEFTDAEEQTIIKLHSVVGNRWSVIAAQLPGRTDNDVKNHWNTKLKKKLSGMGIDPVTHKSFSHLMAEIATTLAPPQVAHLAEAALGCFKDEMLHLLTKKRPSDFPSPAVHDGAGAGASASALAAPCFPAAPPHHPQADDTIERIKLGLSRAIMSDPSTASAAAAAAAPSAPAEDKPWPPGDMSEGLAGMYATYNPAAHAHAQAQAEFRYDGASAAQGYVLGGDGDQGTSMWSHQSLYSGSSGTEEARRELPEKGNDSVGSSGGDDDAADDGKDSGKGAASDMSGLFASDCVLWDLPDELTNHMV

B1: LOC_Os09g36730 promoter probe (dsDNA)
DNA 1: ACCTCACTTTACACCTACCTTGAAGGTT
DNA 2: AACCTTCAAGGTAGGTGTAAAGTGAGGT
B2: LOC_Os07g40830 promoter probe (dsDNA)
DNA 1: CACGCATTCAGGAAACCAGAAGGATC
DNA 2: GATCCTTCTGGTTTCCTGAATGCGTG
B3: LOC_Os08g20200 promoter probe (dsDNA)
DNA 1: TAAGCCAGCTACAACTGACCAACTC
DNA 2: GAGTTGGTCAGTTGTAGCTGGCTTA
B4: LOC_Os01g27170 promoter probe (dsDNA)
DNA 1: CCATCAAAATATATTGACTGTTGGATTTAATG
DNA 2: CATTAAATCCAACAGTCAATATATTTTGATGG
B5: LOC_Os04g51990 promoter probe (dsDNA)
DNA 1: CTGCAGGAAATGGAAAACCATCTTATAGAAG
DNA 2: CTTCTATAAGATGGTTTTCCATTTCCTGCAG
B6: LOC_Os01g50750 promoter probe (dsDNA)
DNA 1: CACCTAAACAAAACCAAACACAAGC
DNA 2: GCTTGTGTTTGGTTTTGTTTAGGTG
B7: LOC_Os03g35920 promoter probe (dsDNA)
DNA 1: GATCTGCATTTGTTAGTTCACCAGCAC
DNA 2: GTGCTGGTGAACTAACAAATGCAGATC
B8: OsMYB80 promoter OsMYB80-2 probe (dsDNA)
DNA 1: ACTCATAGCCTGCTATGTTCACAAGGTTTTATATTACTGA
DNA 2: TCAGTAATATAAAACCTTGTGAACATAGCAGGCTATGAGT
B9: LOC_Os08g38810 promoter probe (dsDNA)
DNA 1: CCTGGTCAGTCCTGTTGCACGGCTATATG
DNA 2: CATATAGCCGTGCAACAGGACTGACCAGG
B10: LOC_Os06g11135 promoter probe (dsDNA)
DNA 1: TCTACCCTCACCAACCACGCTCCCA
DNA 2: TGGGAGCGTGGTTGGTGAGGGTAGA
B11: LOC_Os01g04080 promoter probe (dsDNA)
DNA 1: CCAAATAAACGAGAAAACGGCAAAGGCATATGTCATTCAC
DNA 2: GTGAATGACATATGCCTTTGCCGTTTTCTCGTTTATTTGG
B12: OsMYB80 promoter OsMYB80-1 probe (dsDNA)
DNA 1: TGAACCTAAGGCTGTAAATTTGTTCGGACAAAGGATCATT
DNA 2: AATGATCCTTTGTCCGAACAAATTTACAGCCTTAGGTTCA

Molecular target: T1, OsMYB80
Experiment: EMSA

Binding result, binds:
B1
B2
B3
B4
B5
B6
B7
B8
B9
B10
B11
B12
